Substrate in data set [1]: NCCC=O
The data set is described as follows: spectrophotometric initial velocity, fit to substrate-inhibition equation. It counts as biochemical, Spinacia oleracea. The settings on record: 0.2 mM NAD+, 50 mM HEPES-KOH pH 8.0, 0.1 mM EDTA, 30 °C, apparent. From the text:
spectrophotometric initial velocity, fit to substrate-inhibition equation on SoBADH

Substrate in the data set “purified protein”: C[N+](C)(C)CC=O
The data set is described as follows: purified protein. The settings on record: 0.2 mM NAD+, 50 mM HEPES-KOH pH 8.0, 0.1 mM EDTA, 30 °C, apparent.

Substrate in data set [2]: NC(=O)c1ccc[n+]([C@@H]2O[C@H](COP(=O)(O)OP(=O)(O)OC[C@H]3O[C@@H](n4cnc5c(N)ncnc54)[C@H](O)[C@@H]3O)[C@@H](O)[C@H]2O)c1
Description: spectrophotometric initial velocity, Michaelis-Menten fit. It counts as biochemical, Spinacia oleracea. The settings on record: fixed BAL at least 10x its Km, 50 mM HEPES-KOH pH 8.0, 0.1 mM EDTA, 30 °C, apparent, varied: cofactor. From the text: spectrophotometric initial velocity, Michaelis-Menten fit on SoBADH

This is an account of results in paper PMC4046141, “Exploring the evolutionary route of the acquisition of betaine aldehyde dehydrogenase activity by plant ALDH10 enzymes: implications for the synthesis of the osmoprotectant glycine betaine” (BMC Plant Biology, 2014).

B1: SoBADH (Spinacia oleracea; A441F) (protein)
chain: MAFPIPARQLFIDGEWREPIKKNRIPVINPSTEEIIGDIPAATAEDVEVAVVAARRAFRRNNWSATSGAHRATYLRAIAAKITEKKDHFVKLETIDSGKPFDEAVLDIDDVASCFEYFAGQAEALDGKQKAPVTLPMERFKSHVLRQPLGVVGLISPWNYPLLMATWKIAPALAAGCTAVLKPSELASVTCLEFGEVCNEVGLPPGVLNILTGLGPDAGAPLVSHPDVDKIAFTGSSATGSKVMASAAQLVKPVTLELGGKSPIVVFEDVDIDKVVEWTIFGCFWTNGQICSATSRLLVHESIAAEFVDKLVKWTKNIKISDPFEEGCRLGPVISKGQYDKIMKFISTAKSEGATILYGGSRPEHLKKGYYIEPTIVTDISTSMQIWKEEVFGPVLCVKTFSSEDEAIALANDTEYGLAAAVFSNDLERCERITKALEVGFVWVNCSQPCFVQAPWGGIKRSGFGRELGEWGIQNYLNIKQVTQDISDEPWGWYKSP
notes: native homodimer
Broadly, the Km is the substrate concentration at which the rate is half of its maximum. For orientation: kcat means the number of substrate molecules converted per active site and unit of time at saturation. The term kcat/Km denotes the turnover number divided by the Michaelis constant. With B1, in data set [1], the Km was determined as 3.7 ± 0.0 µM, the catalytic constant (kcat) turned out to be 0.34 ± 0.04 s⁻¹ and the catalytic efficiency (kcat/Km) came out at 92000 ± 11000 M⁻¹ s⁻¹. Besides, in the data set “purified protein”, the Michaelis-Menten constant (Km) was 605 ± 26 µM, the kcat amounted to 0.29 s⁻¹ and the kcat/Km is 480 M⁻¹ s⁻¹.

B2: SoBADH (Spinacia oleracea; A441T) (protein)
chain: MAFPIPARQLFIDGEWREPIKKNRIPVINPSTEEIIGDIPAATAEDVEVAVVAARRAFRRNNWSATSGAHRATYLRAIAAKITEKKDHFVKLETIDSGKPFDEAVLDIDDVASCFEYFAGQAEALDGKQKAPVTLPMERFKSHVLRQPLGVVGLISPWNYPLLMATWKIAPALAAGCTAVLKPSELASVTCLEFGEVCNEVGLPPGVLNILTGLGPDAGAPLVSHPDVDKIAFTGSSATGSKVMASAAQLVKPVTLELGGKSPIVVFEDVDIDKVVEWTIFGCFWTNGQICSATSRLLVHESIAAEFVDKLVKWTKNIKISDPFEEGCRLGPVISKGQYDKIMKFISTAKSEGATILYGGSRPEHLKKGYYIEPTIVTDISTSMQIWKEEVFGPVLCVKTFSSEDEAIALANDTEYGLAAAVFSNDLERCERITKALEVGTVWVNCSQPCFVQAPWGGIKRSGFGRELGEWGIQNYLNIKQVTQDISDEPWGWYKSP
notes: native homodimer
Regarding B2, in data set [1], the Michaelis constant (Km) was 4.6 ± 0.5 µM, the kcat is 1.5 ± 0.12 s⁻¹ and the kcat/Km was found to be 326000 ± 13000 M⁻¹ s⁻¹. For the same protein, in “purified protein”, the Km is 180 ± 6 µM, the kcat worked out at 2.64 s⁻¹ and the kcat/Km worked out at 15000 M⁻¹ s⁻¹.

B3: SoBADH (Spinacia oleracea; A441V) (protein)
chain: MAFPIPARQLFIDGEWREPIKKNRIPVINPSTEEIIGDIPAATAEDVEVAVVAARRAFRRNNWSATSGAHRATYLRAIAAKITEKKDHFVKLETIDSGKPFDEAVLDIDDVASCFEYFAGQAEALDGKQKAPVTLPMERFKSHVLRQPLGVVGLISPWNYPLLMATWKIAPALAAGCTAVLKPSELASVTCLEFGEVCNEVGLPPGVLNILTGLGPDAGAPLVSHPDVDKIAFTGSSATGSKVMASAAQLVKPVTLELGGKSPIVVFEDVDIDKVVEWTIFGCFWTNGQICSATSRLLVHESIAAEFVDKLVKWTKNIKISDPFEEGCRLGPVISKGQYDKIMKFISTAKSEGATILYGGSRPEHLKKGYYIEPTIVTDISTSMQIWKEEVFGPVLCVKTFSSEDEAIALANDTEYGLAAAVFSNDLERCERITKALEVGVVWVNCSQPCFVQAPWGGIKRSGFGRELGEWGIQNYLNIKQVTQDISDEPWGWYKSP
notes: native homodimer
Consider B3, for which, in data set [2], the Km worked out at 6.4 ± 0.5 µM, the kcat came to 0.51 s⁻¹ and the specificity constant (kcat/Km) was 80000 ± 5000 M⁻¹ s⁻¹. Besides, in data set [1], the Michaelis-Menten constant (Km) came to 1.1 ± 0.3 µM, the kcat stood at 0.52 ± 0.1 s⁻¹ and the kcat/Km is 473000 ± 216000 M⁻¹ s⁻¹. In the data set “purified protein”, the Michaelis constant (Km) amounted to 512 ± 79 µM, the kcat was determined as 0.54 s⁻¹ and the specificity constant (kcat/Km) worked out at 1100 M⁻¹ s⁻¹.

B4: SoBADH (Spinacia oleracea) (protein)
chain: MAFPIPARQLFIDGEWREPIKKNRIPVINPSTEEIIGDIPAATAEDVEVAVVAARRAFRRNNWSATSGAHRATYLRAIAAKITEKKDHFVKLETIDSGKPFDEAVLDIDDVASCFEYFAGQAEALDGKQKAPVTLPMERFKSHVLRQPLGVVGLISPWNYPLLMATWKIAPALAAGCTAVLKPSELASVTCLEFGEVCNEVGLPPGVLNILTGLGPDAGAPLVSHPDVDKIAFTGSSATGSKVMASAAQLVKPVTLELGGKSPIVVFEDVDIDKVVEWTIFGCFWTNGQICSATSRLLVHESIAAEFVDKLVKWTKNIKISDPFEEGCRLGPVISKGQYDKIMKFISTAKSEGATILYGGSRPEHLKKGYYIEPTIVTDISTSMQIWKEEVFGPVLCVKTFSSEDEAIALANDTEYGLAAAVFSNDLERCERITKALEVGAVWVNCSQPCFVQAPWGGIKRSGFGRELGEWGIQNYLNIKQVTQDISDEPWGWYKSP
notes: native homodimer
As to B4, in data set [2], the Michaelis-Menten constant (Km) stood at 22 ± 2 µM, the kcat was determined as 4.25 ± 0.16 s⁻¹ and the kcat/Km worked out at 195000 ± 8000 M⁻¹ s⁻¹. In addition, in data set [1], the Km is 3.9 ± 0.1 µM, the kcat worked out at 0.99 ± 0.04 s⁻¹ and the kcat/Km stood at 256000 ± 5000 M⁻¹ s⁻¹. Besides, in “purified protein”, the Km stood at 98 ± 15 µM, the turnover number (kcat) is 3.36 s⁻¹ and the kcat/Km was 35000 M⁻¹ s⁻¹.

B5: SoBADH (Spinacia oleracea; A441S) (protein)
chain: MAFPIPARQLFIDGEWREPIKKNRIPVINPSTEEIIGDIPAATAEDVEVAVVAARRAFRRNNWSATSGAHRATYLRAIAAKITEKKDHFVKLETIDSGKPFDEAVLDIDDVASCFEYFAGQAEALDGKQKAPVTLPMERFKSHVLRQPLGVVGLISPWNYPLLMATWKIAPALAAGCTAVLKPSELASVTCLEFGEVCNEVGLPPGVLNILTGLGPDAGAPLVSHPDVDKIAFTGSSATGSKVMASAAQLVKPVTLELGGKSPIVVFEDVDIDKVVEWTIFGCFWTNGQICSATSRLLVHESIAAEFVDKLVKWTKNIKISDPFEEGCRLGPVISKGQYDKIMKFISTAKSEGATILYGGSRPEHLKKGYYIEPTIVTDISTSMQIWKEEVFGPVLCVKTFSSEDEAIALANDTEYGLAAAVFSNDLERCERITKALEVGSVWVNCSQPCFVQAPWGGIKRSGFGRELGEWGIQNYLNIKQVTQDISDEPWGWYKSP
notes: native homodimer
For B5, the Michaelis constant (Km) in data set [2] is 29 ± 3 µM; in data set [1], 2.0 ± 0.5 µM; in “purified protein” it was 119 ± 8 µM. For the same protein, the kcat in data set [2] is 3.27 ± 0.18 s⁻¹; in data set [1], 1.12 s⁻¹; in the data set “purified protein”, 3.29 s⁻¹. Besides, the kcat/Km in data set [2] came to 114000 ± 20000 M⁻¹ s⁻¹; in data set [1] it was 550000 ± 142000 M⁻¹ s⁻¹; in the data set “purified protein” it was 28000 M⁻¹ s⁻¹.
